In patent publication US20260028402A1 (published 2026):

Tests used:
HuCD100-His = HuCD100-His (human, UniProt Q92854 22-734); experiment: ELISA
MusCD100-His = target: T1, MusCD100-His (mouse, UniProt O09126 24-733); experiment: ELISA
T1 chain: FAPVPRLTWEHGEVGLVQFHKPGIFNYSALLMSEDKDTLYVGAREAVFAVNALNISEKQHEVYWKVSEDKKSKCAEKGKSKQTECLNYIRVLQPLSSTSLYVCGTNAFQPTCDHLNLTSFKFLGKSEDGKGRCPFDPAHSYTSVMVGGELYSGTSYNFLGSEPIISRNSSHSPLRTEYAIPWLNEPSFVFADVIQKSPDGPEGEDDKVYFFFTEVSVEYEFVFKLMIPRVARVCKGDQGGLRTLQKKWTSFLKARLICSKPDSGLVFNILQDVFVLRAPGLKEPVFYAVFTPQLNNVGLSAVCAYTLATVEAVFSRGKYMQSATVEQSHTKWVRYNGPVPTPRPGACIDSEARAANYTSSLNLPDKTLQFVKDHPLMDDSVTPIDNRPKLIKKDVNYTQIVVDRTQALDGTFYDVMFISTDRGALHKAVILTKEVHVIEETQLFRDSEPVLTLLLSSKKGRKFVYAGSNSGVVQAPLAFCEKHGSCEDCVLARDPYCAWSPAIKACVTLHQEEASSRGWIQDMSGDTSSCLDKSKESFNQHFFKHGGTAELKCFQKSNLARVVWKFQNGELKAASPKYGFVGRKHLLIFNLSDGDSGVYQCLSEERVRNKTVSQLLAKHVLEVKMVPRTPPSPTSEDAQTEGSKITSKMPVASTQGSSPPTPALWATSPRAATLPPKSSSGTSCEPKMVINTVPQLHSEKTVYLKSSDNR

[1] = target: HuCD100-Fc (in-house prepared) (human, UniProt Q92854 22-734, biotinylated in the Plexin binding and blocking assays (sites not given)); experiment: FACS blocking; HuPlexin-B1-HEK293, FIG. 12B

B1: Pepinemab (antibody, V domains shown)
VH: QVQLVQSGAEVKKPGSSVKVSCKASGYSFSDYYMHWVRQAPGQGLEWMGQINPTTGGASYNQKFKGKATITVDKSTSTAYMELSSLRSEDTAVYYCARYYYGRHFDVWGQGTTVTVSS
VL: DIVMTQSPDSLAVSLGERATINCKASQSVDYDGDSYMNWYQQKPGQPPKLLIYAASNLESGVPDRFSGSGSGTDFTLTISSLQAEDVAVYYCQQSNEDPYTFGQGTKLEIK
- EC50 (HuCD100-His): 0.122 nM
- EC50 (MusCD100-His): 0.0908 nM
- IC50 [1]: 1.31 nM
